# Assay: soluble on expression in E. coli; label from the status in PepcDB or PDB records
row,Sequence,soluble on expression in E. coli
1,MSLGGPNADAQRANQRNVKKPNTQTKIRLPESVRTKKPVDMDVAPVRQSSRDEIRYAANELDTFIERELLAEGIAAEELASDEVFLRRIYLDVAGRIPTLQEAEQFLSSKSSDRREELIDQLLSSPDYVSHTYNWWADTLRLVDRPQPNLVADPYNGYIKESIAENKPYDKWVYEMLTADGKVWDNPAVGFQLRDDGMPLPYIDNTVRVFLGTQIGCAQCHDHPFDEWSQYQFYQLAAFTAGTSTRMRKGDPGYEKTNPANDLINEGKKRYEKGRVPGEFQRIARANTYIVSERPRRLRLPHDYAYRDAKPKDFVEPKVLWGEIPSSAAKSTPREQFAAWVTSPENPRFSQTVVNRLWKRLMGVGFVDPVDDFRDENPCVNEAAMDYLCKELVRRGFDLKELTRIVLYSQTYQRKAVDYDITDGDLYYFPGPTVRRMTAEQVWDSILTLAVDNPWPFQRPTAKEMKPVMDLDFSKVDFEEVQRRSAKFKETYFASTYKRNLNQHAYQRNVLCRASELPAPLPADHFLRQFGQGDREVINGSQDEATVPQILAMFNGPITHVMLEPGSALVDNVLEVNNVKNRIDAIFLSVLTRKPSTEDRILASRELSSQNQTGVGYGNIIWALLNTREFLFVQEGHHHHHH,not soluble
2,MSLGIKAVIFDLDGVIVSTDEYHYRAWKAMADEEGIYFDKRINERLRGVGRMESLEIILEKAKKTYNTKEKIQMTERKNFIYRELLNELTPKHILKGVMNVLETLRAKNIKIAIGSSSKNTSIILEKIKLDKYFDAVADGREIKKSKPNPEVFLLAAKKLKVSPEECLIVEDADAGVEAAIAGGMKVLAVGYASNNIKANYKFKDLSCVDIKEVICKEGHHHHHH,soluble
3,MSLGKDVRFHTENWSYYPWRLWAEQFLQFEDWCLQASSKVPGIPLHVKRTVTFSTRQILDALSPSNFVLTNPDLLQETIRSNGQNLIRGTELAFQDFVEKITGSPPAGVENFIPGKQVAVTEGKVVYSNHLIELIQYTPQTEKVYKEPILILPAWIMKYYILDLLPENSLVNWLVRQGHTVFIVSWRNPTKEDRNIGLDDYYKLGAMDAINAVSNAIPHTKIHLMGYCLGGTLALLTAAAMAHDHDNRLKTLSLLAAQGDFIDAGELLLFITKSEVSFLKSMMWEQGYLDTKQMSGTFQMLRSYDLIWSKMVQDYMHGTQRGMIPLLAWNADATRMPYKMHSEYLEKLFLNNDFAEGRFILDGKPVVGENIRMPAFVVSTEKDHVAPWKSVYKTHLLINSDITFVLTNGGHNAGIVSEPGHEGRYYRIRERKMDSTYLDPTNWLKKAELREGSWWIAWHDWLVNHSSQKQVSAPKLDKNLPNAPGKYVLQKEGHHHHHH,soluble
4,MSLGKPEFYDFCVHAVPDGANAVEELSSLSRHLGYSGIALANHSDKLPSKKPVLPSIEGFEVFRGIELVEENPSKLHGLVGKFRSSMDVLIVHGGSEAVNRAALENPRVDILNHPAFDKSSGLNQVLAKAAAENGVAIGITLRPLLHSRGSRRIRMLSDLKANLELARKYDVPLVLCSDAMSCYDLRSPMETLAFAEVCGLEEDEALDALSTVPKKIIKKNRPGPGYVREGIEVLEGEGHHHHHH,not soluble
5,MSLGKQLAALPADEVVEQLELAVERFLIQRKIPDQTELGFILNHLHYQTKKGGAVGVQELNIDKNIHQIAVIGDLHGDAESTKYIFQKVLLNKTFMESGMAVFLGDYVDRGQHGINVLTSILAAKVVYGDRVITIRGNHESENLNRRYGFLDEVSRAYGHAFYHKTIAPFFKLLPVAYVASVTSHTTLANRILFVHGGLPRNATLDTLILRSKVDIPSSNDITDQRYTHSLENCLPEDAVQDILWSDPSQTVHGKDTLNDYTKNPRGAGILYSSEFYRKFATENRVLAMFRGHQVVKNGFRRDFFNHYTVFSSSDYVGMKNKGAYAVLDVRCMRTTITSEVDVIGLQNYKEVNLAHCIHAYPVVQKPENEGHHHHHH,soluble
6,MSLGKYFGTDGVRGEANVELTPELAFKLGRFGGYVLSQHETERPKVFVARDTRISGEMLESALIAGLLSVGIEVYKLGVLATPGVSYLVRTEKASAGVMISASHNPALDNGIKFFGNDGFKLADDQELEIEALLDAPEDTLPRPSAEGLGTLVDYPEGLRKYEKFLVTTGTDLSGMTVALDTANGAASVSARDVFLDLNAEIAVIGEKPNGLNINDGVGSTRPEQLQELVKETGADLGLAFDGDSDRLIAVDETGEIVDGDRIMFIIGKYLSEKGLLAHNTIVTTVMSNLGFHKALDKQGINKAITAVGDRYVVEEMRSSGYNLGGEQSGHVIIMDYNTTGDGQLTAIQLAKVMKETGKSLSELAAEVTIYPQKLVNIRVENSMKERAMEVPAIANIIAKMEDEMAGNGRILVRPSGTEPLLRVMAEAPTDAEVDYYVDTIADVVRTEIGCDNEGHHHHHH,soluble

# Reference: the DeepSol protein solubility set
